No end group written: not given here. *: point of attachment. Biotin = O=C1N[C@H]2[C@H](CS[C@H]2CCCCC(=O)*)N1; TTDS = trioxatridecan-succinamic acid spacer
T1: whirlin-NTR (aa residues 2-147) (mouse, UniProt Q80VW5-1 2-147)
T1 construct: extra 7 aa at the N-terminus of all recombinant proteins of the study; also called entire NTR of whirlin (containing the HHD1 domain); source: E. coli BL21 (DE3) codonPlus-RIPL, purified (Glutathione Sepharose 4B, GST removed by TEV proteinase, SEC)
T1 sequence: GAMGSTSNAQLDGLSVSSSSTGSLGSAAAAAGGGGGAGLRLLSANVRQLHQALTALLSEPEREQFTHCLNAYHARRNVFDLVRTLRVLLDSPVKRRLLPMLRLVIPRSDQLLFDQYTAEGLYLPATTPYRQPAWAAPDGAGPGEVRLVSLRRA

T2: whirlin-HHD1 (aa residues 30-121) (mouse, UniProt Q80VW5-1 30-121)
T2 construct: extra 7 aa at the N-terminus of all recombinant proteins of the study; whirlin, residues 30-121: harmonin-homology domain 1 (HHD1); also called HHD1 domain alone; source: E. coli BL21 (DE3) codonPlus-RIPL, purified (Glutathione Sepharose 4B, GST removed by TEV proteinase, SEC)
T2 sequence: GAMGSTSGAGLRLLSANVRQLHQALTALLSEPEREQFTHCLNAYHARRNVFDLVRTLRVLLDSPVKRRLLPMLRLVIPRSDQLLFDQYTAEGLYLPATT

T3: whirlin-PDZ1 (aa residues 137-228) (mouse, UniProt Q80VW5-1 137-228)
T3 construct: extra 7 aa at the N-terminus of all recombinant proteins of the study; whirlin, residues 137-228: PDZ1 domain; also called whirlin PDZ1 domain alone; source: E. coli BL21 (DE3) codonPlus-RIPL, purified (Glutathione Sepharose 4B, GST removed by TEV proteinase, SEC)
T3 sequence: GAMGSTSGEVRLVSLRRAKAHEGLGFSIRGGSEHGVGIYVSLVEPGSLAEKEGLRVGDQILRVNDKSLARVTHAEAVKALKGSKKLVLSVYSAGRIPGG

T4: whirlin-PDZ3 (aa residues 821-915) (mouse, UniProt Q80VW5-1 821-915)
T4 construct: extra 7 aa at the N-terminus of all recombinant proteins of the study; whirlin, residues 821-915: PDZ3 domain, common to L- and S-whirlin; also called whirlin PDZ3 domain
T4 sequence: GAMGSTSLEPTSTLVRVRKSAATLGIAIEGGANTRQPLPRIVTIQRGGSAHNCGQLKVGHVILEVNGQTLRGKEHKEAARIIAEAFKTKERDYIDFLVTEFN

T5: whirlin PDZ1-Hp (aa residues 137-246) (mouse, UniProt Q80VW5-1 137-246)
T5 construct: extra 7 aa at the N-terminus of all recombinant proteins of the study; whirlin, residues 137-246: PDZ1 with its hairpin extension Hp1; also called PDZ1 + Hp1; whirlin PDZ1-Hp1 fragment
T5 sequence: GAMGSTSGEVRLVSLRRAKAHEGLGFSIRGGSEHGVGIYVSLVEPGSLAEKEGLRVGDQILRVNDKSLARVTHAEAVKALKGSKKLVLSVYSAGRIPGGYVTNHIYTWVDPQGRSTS

T6: whirlin-PDZ2 (aa residues 272-368) (mouse, UniProt Q80VW5-1 272-368)
T6 construct: extra 7 aa at the N-terminus of all recombinant proteins of the study; whirlin, residues 272-368: PDZ2 domain; source: E. coli BL21 (DE3) codonPlus-RIPL, purified (Glutathione Sepharose 4B, GST removed by TEV proteinase, SEC)
T6 sequence: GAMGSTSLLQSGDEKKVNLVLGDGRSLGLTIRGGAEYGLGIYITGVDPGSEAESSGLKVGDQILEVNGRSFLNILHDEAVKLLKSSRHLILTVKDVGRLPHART

B1: PCDH15-CD2 C-terminal peptide (biotin-TTDS-GANSEQYNTAL) (peptide)
peptide: {Biotin-TTDS}-GANSEQYNTAL
notes: C-terminal 11 aa of protocadherin-15 isoform CD2, including the PBM; source: synthetic peptide (Eurogentec); not shown: biotin, N-terminal, kept
B2: PCDH15-CD1 C-terminal peptide (biotin-TTDS-GIDVQPHSQSTSL) (peptide)
peptide: {Biotin-TTDS}-GIDVQPHSQSTSL
notes: C-terminal 13 aa of protocadherin-15 isoform CD1, including the PBM; source: synthetic peptide (Eurogentec); not shown: biotin, N-terminal, kept
B3: PCDH15-CD3 C-terminal peptide (biotin-TTDS-MGPWNSLHIPMTKL) (peptide)
peptide: {Biotin-TTDS}-MGPWNSLHIPMTKL
notes: C-terminal 14 aa of protocadherin-15 isoform CD3, including the PBM; source: synthetic peptide (Eurogentec); not shown: biotin, N-terminal, kept

Tests used:
Assay in all cases: SPR; ProteOn XPR 36; N-terminally biotinylated peptides captured on a Neutravidin NLC sensor chip, whirlin fragments flowed as analytes at 20 μL/min for 2 min; 250 mM NaCl, 50 mM Tris pH 7.5, 0.5 mM TCEP; steady-state fit Req = (Rmax*C)/(Kd+C); mean of three experiments; Figure 4B shows the responses at 10 μM
Conditions in all cases: both partners purified
[1] = target: T1, whirlin-NTR (aa residues 2-147)
[2] = target: T2, whirlin-HHD1 (aa residues 30-121)
[3] = target: T3, whirlin-PDZ1 (aa residues 137-228)
[4] = target: T4, whirlin-PDZ3 (aa residues 821-915)
[5] = target: T5, whirlin PDZ1-Hp (aa residues 137-246)
[6] = target: T6, whirlin-PDZ2 (aa residues 272-368)

Binder	Kd [1]	Kd [2]	Kd [3]	Kd [4]	Kd [5]	Kd [6]
B1	> 1000 µM	> 1000 µM	147 µM	> 1000 µM	33 µM	> 1000 µM
B2	> 1000 µM	> 1000 µM	106 µM	> 1000 µM	29 µM	> 1000 µM
B3	> 1000 µM	> 1000 µM	34 µM	230 µM	11 µM	460 µM

From paper PMC7532178, “Interaction of protocadherin-15 with the scaffold protein whirlin supports its anchoring of hair-bundle lateral links in cochlear hair cells” (Scientific Reports, 2020)
